Test results from the supplement of paper PMC9112550, “Optimization of the antimicrobial peptide Bac7 by deep mutational scanning” (BMC Biology, 2022).

The sequences below were run on Escherichia coli TOP10 (assay: shrunken log2 fold change of peptide-encoding DNA abundance (4.5 h post-induction vs induction); higher = less antimicrobial activity (less host growth inhibition)). Settings: time post-induction: 4.5 h; library: site-saturation at positions 5, 18, 19, 20.
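Note: peptides expressed intracellularly from a pBAD plasmid library in pooled LB shake-flask culture, induced with 0.3% L-arabinose, DNA abundance read by NGS, three biological replicates, DESeq2 with apeglm shrinkage.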

Q: How did the “shrunken log2 fold change” value turn out when RRIRSRPPRLPRPRPRPSMYPRP was run?
A: -0.286

Q: With RRIRERPPRLPRPRPRPHAEPRP as the sequence, how does the “shrunken log2 fold change” value read?
A: -0.0335

Q: With RRIRFRPPRLPRPRPRPPDHPRP as the sequence, how does the “shrunken log2 fold change” value read?
A: 0.28

Q: RRIRRRPPRLPRPRPRPDKSPRP was tested. Which “shrunken log2 fold change” value did it give?
A: 0.00757

Q: Which “shrunken log2 fold change” value does the source give for RRIRPRPPRLPRPRPRPNEVPRP here?
A: 0.292

Q: RRIRMRPPRLPRPRPRPKVAPRP was tested. Which “shrunken log2 fold change” value did it give?
A: -0.0166

Q: RRIRFRPPRLPRPRPRPYRAPRP was tested. Which “shrunken log2 fold change” value did it give?
A: -0.353

Q: With RRIRMRPPRLPRPRPRPESKPRP as the sequence, how does the “shrunken log2 fold change” value read?
A: 2.93

Q: For RRIRQRPPRLPRPRPRPFPRPRP, which “shrunken log2 fold change” value is on record?
A: -0.122

Q: With RRIRIRPPRLPRPRPRPKGNPRP as the sequence, how does the “shrunken log2 fold change” value read?
A: -0.459

Q: RRIRRRPPRLPRPRPRPHLQPRP was tested. Which “shrunken log2 fold change” value did it give?
A: -0.0319

Q: With RRIRERPPRLPRPRPRPLLWPRP as the sequence, how does the “shrunken log2 fold change” value read?
A: -0.0136

Q: RRIRIRPPRLPRPRPRPAEDPRP was tested. Which “shrunken log2 fold change” value did it give?
A: -0.0521

Q: With RRIRDRPPRLPRPRPRPPQDPRP as the sequence, how does the “shrunken log2 fold change” value read?
A: 0.811

Q: RRIRWRPPRLPRPRPRPRGGPRP was tested. Which “shrunken log2 fold change” value did it give?
A: 0.984

Q: For RRIRRRPPRLPRPRPRPEERPRP, which “shrunken log2 fold change” value is on record?
A: 0.34

Q: RRIRERPPRLPRPRPRPWFVPRP was tested. Which “shrunken log2 fold change” value did it give?
A: -0.463

Q: With RRIRNRPPRLPRPRPRPSDPPRP as the sequence, how does the “shrunken log2 fold change” value read?
A: -0.192

Q: How did the “shrunken log2 fold change” value turn out when RRIRVRPPRLPRPRPRPFSFPRP was run?
A: 1.26

Q: How did the “shrunken log2 fold change” value turn out when RRIRKRPPRLPRPRPRPIECPRP was run?
A: -0.0298

Q: How did the “shrunken log2 fold change” value turn out when RRIRARPPRLPRPRPRPRPYPRP was run?
A: 0.375

Q: How did the “shrunken log2 fold change” value turn out when RRIRCRPPRLPRPRPRPTCQPRP was run?
A: 0.00203

Q: RRIRHRPPRLPRPRPRPLWFPRP was tested. Which “shrunken log2 fold change” value did it give?
A: -0.00823

Q: For RRIRDRPPRLPRPRPRPEIVPRP, which “shrunken log2 fold change” value is on record?
A: 0.048

Q: For RRIRARPPRLPRPRPRPLNMPRP, which “shrunken log2 fold change” value is on record?
A: -0.502

Q: Which “shrunken log2 fold change” value does the source give for RRIRERPPRLPRPRPRPGTMPRP here?
A: 0.0721

Q: With RRIRPRPPRLPRPRPRPVHLPRP as the sequence, how does the “shrunken log2 fold change” value read?
A: 0.179

Q: Which “shrunken log2 fold change” value does the source give for RRIRWRPPRLPRPRPRPVTHPRP here?
A: -0.0273

Q: For RRIRRRPPRLPRPRPRPSKSPRP, which “shrunken log2 fold change” value is on record?
A: 0.292

Q: For RRIRNRPPRLPRPRPRPNNHPRP, which “shrunken log2 fold change” value is on record?
A: -0.741

Q: RRIRLRPPRLPRPRPRPNKHPRP was tested. Which “shrunken log2 fold change” value did it give?
A: -0.43

Q: RRIRTRPPRLPRPRPRPQHDPRP was tested. Which “shrunken log2 fold change” value did it give?
A: -0.259

Q: For RRIRDRPPRLPRPRPRPHTLPRP, which “shrunken log2 fold change” value is on record?
A: -0.196

Q: For RRIRLRPPRLPRPRPRPCSTPRP, which “shrunken log2 fold change” value is on record?
A: -0.0337

Q: Which “shrunken log2 fold change” value does the source give for RRIRVRPPRLPRPRPRPNASPRP here?
A: 0.147

Q: RRIRIRPPRLPRPRPRPTEHPRP was tested. Which “shrunken log2 fold change” value did it give?
A: -0.449

Q: With RRIRSRPPRLPRPRPRPAVFPRP as the sequence, how does the “shrunken log2 fold change” value read?
A: 0.114

Q: For RRIRFRPPRLPRPRPRPFVMPRP, which “shrunken log2 fold change” value is on record?
A: -1.05

Q: Which “shrunken log2 fold change” value does the source give for RRIRPRPPRLPRPRPRPHVFPRP here?
A: -0.327

Q: With RRIRYRPPRLPRPRPRPMTCPRP as the sequence, how does the “shrunken log2 fold change” value read?
A: -0.122

Q: RRIRWRPPRLPRPRPRPHQKPRP was tested. Which “shrunken log2 fold change” value did it give?
A: 0.0146

Q: Which “shrunken log2 fold change” value does the source give for RRIRSRPPRLPRPRPRPRVSPRP here?
A: -0.0241

Q: With RRIRIRPPRLPRPRPRPHTWPRP as the sequence, how does the “shrunken log2 fold change” value read?
A: -0.401

Q: With RRIRHRPPRLPRPRPRPGQVPRP as the sequence, how does the “shrunken log2 fold change” value read?
A: -0.00149

Q: RRIRARPPRLPRPRPRPMDLPRP was tested. Which “shrunken log2 fold change” value did it give?
A: -0.292

Q: For RRIRWRPPRLPRPRPRPFLYPRP, which “shrunken log2 fold change” value is on record?
A: -0.0978

Q: For RRIRTRPPRLPRPRPRPTNLPRP, which “shrunken log2 fold change” value is on record?
A: -0.0724

Q: RRIRIRPPRLPRPRPRPRPAPRP was tested. Which “shrunken log2 fold change” value did it give?
A: 0.286

Q: RRIRARPPRLPRPRPRPWIIPRP was tested. Which “shrunken log2 fold change” value did it give?
A: -0.0127

Q: With RRIRHRPPRLPRPRPRPIYCPRP as the sequence, how does the “shrunken log2 fold change” value read?
A: -0.0143

Q: Which “shrunken log2 fold change” value does the source give for RRIRERPPRLPRPRPRPTLDPRP here?
A: 0.149

Q: With RRIRIRPPRLPRPRPRPEWSPRP as the sequence, how does the “shrunken log2 fold change” value read?
A: -0.26

Q: RRIRRRPPRLPRPRPRPIDNPRP was tested. Which “shrunken log2 fold change” value did it give?
A: -0.349

Q: With RRIRNRPPRLPRPRPRPTNRPRP as the sequence, how does the “shrunken log2 fold change” value read?
A: -0.00917

Q: Which “shrunken log2 fold change” value does the source give for RRIRYRPPRLPRPRPRPIQRPRP here?
A: -0.00865

Q: RRIRQRPPRLPRPRPRPVHAPRP was tested. Which “shrunken log2 fold change” value did it give?
A: 0.0261

Q: Which “shrunken log2 fold change” value does the source give for RRIRARPPRLPRPRPRPQINPRP here?
A: -0.0458

Q: For RRIRARPPRLPRPRPRPVMHPRP, which “shrunken log2 fold change” value is on record?
A: 0.191

Q: With RRIRMRPPRLPRPRPRPHYIPRP as the sequence, how does the “shrunken log2 fold change” value read?
A: -0.335

Q: With RRIRHRPPRLPRPRPRPIQPPRP as the sequence, how does the “shrunken log2 fold change” value read?
A: 0.0532

Q: Which “shrunken log2 fold change” value does the source give for RRIRNRPPRLPRPRPRPNVKPRP here?
A: -0.324

Q: RRIRMRPPRLPRPRPRPSWRPRP was tested. Which “shrunken log2 fold change” value did it give?
A: 0.194

Q: RRIRSRPPRLPRPRPRPSPCPRP was tested. Which “shrunken log2 fold change” value did it give?
A: -0.04

Q: Which “shrunken log2 fold change” value does the source give for RRIRERPPRLPRPRPRPCTVPRP here?
A: -0.0354

Q: For RRIRERPPRLPRPRPRPVEAPRP, which “shrunken log2 fold change” value is on record?
A: 0.21

Q: For RRIRCRPPRLPRPRPRPRAHPRP, which “shrunken log2 fold change” value is on record?
A: 0.361

Q: RRIRFRPPRLPRPRPRPPKFPRP was tested. Which “shrunken log2 fold change” value did it give?
A: 0.0968

Q: RRIRCRPPRLPRPRPRPMQYPRP was tested. Which “shrunken log2 fold change” value did it give?
A: -0.000361

Q: For RRIRVRPPRLPRPRPRPAHHPRP, which “shrunken log2 fold change” value is on record?
A: -0.011

Q: How did the “shrunken log2 fold change” value turn out when RRIRARPPRLPRPRPRPECNPRP was run?
A: 0.807

Q: With RRIRLRPPRLPRPRPRPPPVPRP as the sequence, how does the “shrunken log2 fold change” value read?
A: 0.98

Q: How did the “shrunken log2 fold change” value turn out when RRIRLRPPRLPRPRPRPFCIPRP was run?
A: -0.22

Q: For RRIRARPPRLPRPRPRPFVMPRP, which “shrunken log2 fold change” value is on record?
A: -0.181

Q: For RRIRERPPRLPRPRPRPDLKPRP, which “shrunken log2 fold change” value is on record?
A: -0.108

Q: For RRIRQRPPRLPRPRPRPTRVPRP, which “shrunken log2 fold change” value is on record?
A: 0.305

Q: RRIRYRPPRLPRPRPRPKCMPRP was tested. Which “shrunken log2 fold change” value did it give?
A: -0.841

Q: RRIRGRPPRLPRPRPRPQEAPRP was tested. Which “shrunken log2 fold change” value did it give?
A: 0.492

Q: Which “shrunken log2 fold change” value does the source give for RRIRCRPPRLPRPRPRPTPIPRP here?
A: 0.244

Q: With RRIRQRPPRLPRPRPRPSAIPRP as the sequence, how does the “shrunken log2 fold change” value read?
A: -0.399

Q: For RRIRMRPPRLPRPRPRPFASPRP, which “shrunken log2 fold change” value is on record?
A: 0.0812

Q: With RRIRSRPPRLPRPRPRPGISPRP as the sequence, how does the “shrunken log2 fold change” value read?
A: -0.486

Q: Which “shrunken log2 fold change” value does the source give for RRIRPRPPRLPRPRPRPQGPPRP here?
A: 0.0552

Q: RRIRRRPPRLPRPRPRPTMEPRP was tested. Which “shrunken log2 fold change” value did it give?
A: -0.0829

Q: How did the “shrunken log2 fold change” value turn out when RRIRVRPPRLPRPRPRPGCQPRP was run?
A: -0.0161

Q: How did the “shrunken log2 fold change” value turn out when RRIRPRPPRLPRPRPRPKYGPRP was run?
A: -0.491

Q: Which “shrunken log2 fold change” value does the source give for RRIRIRPPRLPRPRPRPTPRPRP here?
A: 0.466

Q: RRIRPRPPRLPRPRPRPCDLPRP was tested. Which “shrunken log2 fold change” value did it give?
A: -0.428

Q: How did the “shrunken log2 fold change” value turn out when RRIRGRPPRLPRPRPRPITMPRP was run?
A: -0.0891

Q: With RRIRTRPPRLPRPRPRPRRYPRP as the sequence, how does the “shrunken log2 fold change” value read?
A: 0.108

Q: How did the “shrunken log2 fold change” value turn out when RRIRTRPPRLPRPRPRPMKYPRP was run?
A: -0.0467

Q: How did the “shrunken log2 fold change” value turn out when RRIRQRPPRLPRPRPRPHMEPRP was run?
A: -0.172

Q: With RRIRVRPPRLPRPRPRPLRSPRP as the sequence, how does the “shrunken log2 fold change” value read?
A: 0.132

Q: With RRIRQRPPRLPRPRPRPPHCPRP as the sequence, how does the “shrunken log2 fold change” value read?
A: 0.0459

Q: With RRIRYRPPRLPRPRPRPKTPPRP as the sequence, how does the “shrunken log2 fold change” value read?
A: 0.103

Q: For RRIRQRPPRLPRPRPRPVIYPRP, which “shrunken log2 fold change” value is on record?
A: -0.0661

Q: With RRIRCRPPRLPRPRPRPRSDPRP as the sequence, how does the “shrunken log2 fold change” value read?
A: -0.101

Q: With RRIRPRPPRLPRPRPRPYYTPRP as the sequence, how does the “shrunken log2 fold change” value read?
A: -0.379

Q: For RRIRCRPPRLPRPRPRPCESPRP, which “shrunken log2 fold change” value is on record?
A: -0.0611

Q: Which “shrunken log2 fold change” value does the source give for RRIRMRPPRLPRPRPRPKAQPRP here?
A: 1.72

Q: Which “shrunken log2 fold change” value does the source give for RRIRCRPPRLPRPRPRPEGHPRP here?
A: 0.38

Q: RRIRNRPPRLPRPRPRPKKTPRP was tested. Which “shrunken log2 fold change” value did it give?
A: -0.197

Q: For RRIRPRPPRLPRPRPRPKFHPRP, which “shrunken log2 fold change” value is on record?
A: -0.143

Q: Which “shrunken log2 fold change” value does the source give for RRIRSRPPRLPRPRPRPRDMPRP here?
A: 0.446

Q: For RRIRFRPPRLPRPRPRPPPSPRP, which “shrunken log2 fold change” value is on record?
A: 1.35

Q: With RRIRRRPPRLPRPRPRPQIFPRP as the sequence, how does the “shrunken log2 fold change” value read?
A: -0.0198

Q: With RRIRTRPPRLPRPRPRPFLGPRP as the sequence, how does the “shrunken log2 fold change” value read?
A: -0.0873

Q: For RRIRPRPPRLPRPRPRPLERPRP, which “shrunken log2 fold change” value is on record?
A: 0.277

Q: With RRIRDRPPRLPRPRPRPARSPRP as the sequence, how does the “shrunken log2 fold change” value read?
A: 0.0403

Q: With RRIRNRPPRLPRPRPRPRPKPRP as the sequence, how does the “shrunken log2 fold change” value read?
A: 0.719
